Numbering of substitutions follows the chain as printed. Square brackets hold non-standard residues; d marks the D form. Ends that are not written are not given here. Hyp = O=C(O)[C@@H]1C[C@@H](O)CN1
Columns and labels:
Test in all cases: ITC; 0.5–1 mM peptide titrated into 10–40 μM ecdTDR; 25°C; 10 mM sodium citrate, 100 mM NaCl, pH 5.5; fitted to one set of binding sites; MicroCal Auto-iTC200
Settings in all cases: both partners purified
ecdTDR E231A mutant = target: T1, ecdTDR E231A mutant (Arabidopsis thaliana, UniProt Q9FII5 30-642, E231A)
T1 construct: TDR/PXY of A. thaliana, extracellular domain, residues 30-642; source: High Five insect cells (baculovirus), secreted, purified as the wild type (Ni-NTA, size-exclusion chromatography)
T1 sequence (looked up): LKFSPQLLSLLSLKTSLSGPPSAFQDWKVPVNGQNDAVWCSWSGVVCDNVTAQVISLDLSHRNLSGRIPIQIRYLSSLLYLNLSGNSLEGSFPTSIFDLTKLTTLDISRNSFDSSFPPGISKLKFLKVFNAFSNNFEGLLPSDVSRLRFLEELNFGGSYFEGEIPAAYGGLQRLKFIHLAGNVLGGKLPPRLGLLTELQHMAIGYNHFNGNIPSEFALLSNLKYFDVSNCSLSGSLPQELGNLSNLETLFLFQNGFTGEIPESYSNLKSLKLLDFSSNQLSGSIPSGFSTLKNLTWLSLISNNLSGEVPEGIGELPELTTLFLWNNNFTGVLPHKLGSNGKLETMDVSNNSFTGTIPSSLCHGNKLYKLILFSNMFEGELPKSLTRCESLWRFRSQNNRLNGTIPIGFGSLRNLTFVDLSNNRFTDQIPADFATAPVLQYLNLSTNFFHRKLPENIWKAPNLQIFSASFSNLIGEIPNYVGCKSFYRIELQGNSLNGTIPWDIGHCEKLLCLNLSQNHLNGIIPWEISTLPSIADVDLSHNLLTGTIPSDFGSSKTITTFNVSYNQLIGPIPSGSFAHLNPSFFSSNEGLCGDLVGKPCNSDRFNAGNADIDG

ecdTDR G186A mutant = target: T2, ecdTDR G186A mutant (Arabidopsis thaliana, UniProt Q9FII5 30-642, G186A)
T2 construct: TDR/PXY of A. thaliana, extracellular domain, residues 30-642; source: High Five insect cells (baculovirus), secreted, purified as the wild type (Ni-NTA, size-exclusion chromatography)
T2 sequence (looked up): T1 sequence (looked up) with G157A, A202E

ecdTDR Q282A mutant = target: T3, ecdTDR Q282A mutant (Arabidopsis thaliana, UniProt Q9FII5 30-642, Q282A)
T3 construct: TDR/PXY of A. thaliana, extracellular domain, residues 30-642; source: High Five insect cells (baculovirus), secreted, purified as the wild type (Ni-NTA, size-exclusion chromatography)
T3 sequence (looked up): T1 sequence (looked up) with A202E, Q253A

[1] = target: T4, ecdTDR F279 alanine mutant (Arabidopsis thaliana, UniProt Q9FII5 30-642, alanine substitution of F279)
T4 construct: TDR/PXY of A. thaliana, extracellular domain, residues 30-642; The text says only 'mutational analyses' of F279; source: High Five insect cells (baculovirus), secreted, purified as the wild type (Ni-NTA, size-exclusion chromatography)
T4 sequence (looked up): T1 sequence (looked up) with A202E, F250A

Measured: binding result

B1: Tracheary Element Differentiation Inhibitory Factor (TDIF) peptide (peptide)
peptide: HEV[Hyp]SG[Hyp]NPISN
notes: TDIF, the 12-residue CLE peptide processed from CLE41 and CLE44 of A. thaliana; printed as HEV(Hyp)SG(Hyp)NPISN; numbers count on: the 12-residue peptide; CLE44 encodes the same peptide; also called wild type TDIF; wtTDIF; source: synthetic peptide (peptide 2.0)
binds: all assays above

— PMC5383425, “Differential CLE peptide perception by plant receptors implicated from structural and functional analyses of TDIF-TDR interactions” (PLoS ONE, 2017)
